Experimental data published in the domain aggregation screens of Martell et al. (2025).

Assay: soluble fraction after stress (log2 fold change); higher = more stays soluble; pooled small domains, quantitative proteomics
Details: stress: 75 degC
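Note: 20 min heating vs room temperature control held 20 min.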

Sequence	soluble fraction (log2)
HMQVQHVWNRLKRPNGDVLYEINRDHPLVSASLDAAADRGAIETLLRQIEQSLPVNQLYVDMNADEHFE	-0.602
HMQVSDAAQLAEVVKTVLAENPAAVGDYRKGKKAAIGFLLGQVMRHMRGTANPAVARQLLEQALEDE	-0.076
HMQVSDLSAIDSLIDKVLSEQQAAVQDFRSGQGKAMGFLIGKVMQASDGKANPKVIRELMGKKLA	0.0534
HMQVSIGERVKLARMSAGLNQRQLGKEMGMSAMAISKYETGEVVPNSRVLIQLSQTLHVPLDFFFRS	-3.04
HMQVTDADFDQIRLAVLSQLKQNSLTVAELLKIIPFKEQKVMPVIRFLIDNRVLEHGTDMKLTVGNSVK	-0.223
HMQVTIGADLAEHAARLDVQISDVVKLIKSGVSEGEIKVGLTKLETRLAHPELALVENKLAYLKALIAES	-2.27
HMQYALEDDLDSAIKLLTGKGLSGTVAWGWSDTYINVGKKSYSMEFIAKMLLRLGEGSRVTIQVDPA	-4.62
HMQYIINFEYSGMLLREYLRGVLGLSHGTLTALKKDPLGILLNGEHATVRAVLHAGDRLTLALE	-3.51
HMQYKVMDVTVDGNPVIEFQNLNSKIKWIENNPDAIIQNIKTSSFEADQKRIVGTSRGPFWIVIKPDF	-0.424
HMQYRQRRGLERMELILDAATRVVAEVGYERTTTNAIATRAGISPGSLYQYFSSKEDIASALWERYAE	-0.0812
HMRAGEAVTGQVIGVKEDEIILSIAGSKSEGIITRSEFTNEPNVDLTTKVSVGDELEVKVLKVNDGEGMAS	-0.317
HMRAKPLILLDGREISAEELFSLDKNSIKSIEVLKDETALAQYGEKAKNGVVLVVTKSAAAS	0.00789
HMRALPAGQADLLKWIDGVTPRSVEELELLSGLEPGRLSELLMELELAGIVRAVAGDSYIKISKS	-0.649
HMRAPETEITYTEFKTALRAGQIETATVGIEQISGKLTDGDLYRTVRVDDPDLLKDLEANHVNAAGRV	0.0537
HMRASQGRNELILSLLRGHELSILELLEGLEKQGVRVARPTLTKDLNELVSRGSVEATAPPRSKNRTYRIP	-0.986
HMRDFLMDSTKNKLSKDQVQLSRIFLWFGNDFGSKAERLEFISRYSGMDFNQPKIDYLTYDWSLNQ	0.286
HMRDLITYVVQINGKLRGKLEVAPDTDPEELKALALEVENVKRSLEGWVVKKVIVVPGKMVSIAAG	-1.77
HMRDLLPHFQRELQFLQTHRNEFAAAYPELGGRLATASDLLDDPHVERMVQSFALLAARVHKRLDDDF	0.121
HMRDLTARQQQILALIRQHIADTGFPPTRAEIAAQLGFRSPNAAEEHLKALARKGVIELASGASRGIRLK	-0.86
HMRDPFDALSARERAVASLVQRGLRNKEVASELGLTEGTVKVHLHKVFDKLGIRGRTELILLAQER	-1.35
HMRDQAIDIYKTVHSVAEPYKEVFLLRVLGELSFKEISHIFGKSESWAKVTFFRAKIKVVEKREES	-3.97
HMRDQQHNIYLLEKAKRLYEEFLGDNRHIIAAEMARFEAVLETQDAIIIQRAQQQFSEFLNRFDG	-2.12
HMRDRYEYLKELRLYLSPLGRTEEDRVIEYYAELIGDKIESGIPENGVLSQLGTPRELADKILAETQEY	-0.377
HMRDSLVGLEGVVVREVDDETLAGKVQIGSMEWSARSESGRIPAGRRVVVLRAEGVHIVVKEV	-0.407
HMRDSWNEATKEKRYTEAYDALNSALKKTPATPHALSDALWIARELGRTNEEVQRLEWRLYALLTWIS	0.241
HMRDTDAEVTYKLNEPFKTMGSVSVEGKVLEFAGSKWFARAAEFASNTEVYPLAKNRVRLTFTFHGLTAP	0.146
HMREEFIGVLDGKVAIFHGRPERKGPLKEVTAIEVDKLPRQEQADLEKGLVIRTDKEKLQLMEGLAALLD	0.683
HMREELIALYRAIARLSEDEQELLNLFYFARRPLSEIAQLTGMTPGAAKTRLYRARRHLRREMEEDGYG	-1.07

Sequence	soluble fraction (log2)
HMREGLRHLRVRMPGGAGETLAMLYREGEVLSQSSDGAFIEVEIRVAQSVAGRLLQMPGVQLTEEVG	-0.941
HMREGNELLGKEGVTVSELRPAGIALIDGRRTDVVTDGEFVAVDQAVEVVEVSGNRVVVRRS	0.305
HMREIDIWVAEDADSQRIDKYLSMVVEDLSRSRIASLIEGGSILVNGEVIRAKYKVKPADHITAAFEDEM	-1.27
HMREIKSNEILLEVENLKNSEFFNDINFNIKKGEIVGFSGLIGAGRTELALTLFGYYKAESGKVIQ	0.101
HMREIRIIAEEGHGRLDAFLAGREELGLSRSRIKGLIEEGQVTLNGAVPKAKQPVSPGDEIVVSVPD	0.192
HMREKMKGKILDYNFQESRGIISADDGNRYSFENSQWKGTQSPKVNQIVDFEIDGQNAKDIYLDK	0.0796
HMRESLSEAERHPRYLEGEDVVRMFLLMGDLSRVEAEVIALQWNAQEADRVGLPQDAKVFRTRAR	-0.523
HMREVDKRYYKINIAGTDRIFTNVYRVGDRYSAYEADKNGKPGKFLYSLSQAEIDRAVISGSFDFK	-0.225
HMREVSPEDLALMRRIDAWHLEHPFAGARLLRDLLRPEGFQAGRRHIGTLMARMGIEALYRK	-0.383
HMREYVGLSPFNKEKTPSFYVNDEKGQFFDFSSGKNGDLITFLQETERLTFMEAVERLAAEAGLPMPA	-0.742
HMRFANGHLIWDTIIELRNAERRINRRALADLTGLKPGVVDDHVERWIEKDQLRRAGNGELEVV	-1.36
HMRFMRVSQSKSKNSTSLYIIESVYTKDNKHTTRIVKKLGTVEELSKEHEDPLAWAKEVAKQMTEEAEQN	-0.569
HMRFNIGNVIEHYKLNTEDLAKVLFPTVKYPKQAFDRVLKGEANLDVIQLERLANHIGVLVTDLF	-1.18
HMRFQGKISDWNDEKGYGFVEPNGGGTRAFVHIKSFTDLPRRPINGDIIIYETTTDEKNRVQANNISFTR	-0.194
HMRFSYLNIETRKDISSLINKSEITHSSYNNNEYLYKIKSKKTDDFKDLISLIDEKDLISYSIDS	-1.14
HMRFTVSDKMDMLLKSLSAGQSMPFKSLFASASTKSEVIVTFLALLELMKLNQFVVWQDQILGEIEIERR	-0.751
HMRGDQLREHLLWTAKDVFLELGFERASMDAVAARAETSKRSLYAHFESKEKLFLAVIDLVRG	-3.54
HMRGESFSTLVSILQEMSARKAAQVLNGLSEGLAVEVLRALPSDVAGDILGRMDAAKAAALMEQLST	-0.46
HMRGGLATLTPRERQVLALMAEGRSNAGIAAELVVSGGAVEKHVASIFTKLGLPPDESDNRRVLAVLRHLG	-1.74
HMRGHASVEIKRIVYKYKLTDQELAKITGMKASDFPIYHDHLQLILPKRYWARVLDALQNYEKEHES	-4.04
HMRGINDLSLVDPQGRIRKDGEQYVVAFGRHKGKEISQIISQDPSYLNWLLSPKGIEDDATRELIRTQYS	-0.206
HMRGPTIELLIQKSALYEELDDSENALKEILKAFDRDSLNSDVLNRLVNLLLNDKQIDRAENYNQLLIEK	-0.17
HMRGPVRLDLPVSGLSRSSGPALAKILQAVPGVHKAHVNVRSGKATLEYDPARAKVTDFVEVIRSAGFGT	-0.272
HMRGQGRILAMLKIQPEIATKDLAYLLGIRQQSLNELLKKLEKNSYVERRPSEKDRRVMVVHLTEKGKE	-0.782
HMRGQLADLWLPREQARRAAEIVAARPVPLGSVKTWIARGKLAPRKTGTGPALYRVGALVSLLAKS	-2.14
HMRGVNEISYTTLISEVSGGNVRDVVISGDEITGTFNDGSRFHSFSPDDPQFIERLNDQGVIINVKPL	0.168
HMRHDSEGYYRLIGVPPDADDAELKEAAKKRLMEAHPDHGGSEDEFVEVYRAYRTLTDPSARAEYDARP	0.28
